Results: patent US20220054419A1

How the values were obtained:
Experiment in all cases: cell-based or functional assay
[1] = biological target: hemagglutinin (HA) of A/New Caledonia/20/99 (H1N1) on pseudotyped lentivirus (Influenza virus A/New Caledonia/20/1999 (H1N1)) (UniProt Q289M7)
[2] = biological target: hemagglutinin (HA) of A/New York/653/96 (H1N1) on pseudotyped lentivirus (Influenza virus A/New York/653/96 (H1N1))
[3] = biological target: hemagglutinin (HA) of A/Fort Monmouth/1/47 (H1N1) on pseudotyped lentivirus (Influenza virus A/Fort Monmouth/1/47 (H1N1)) (UniProt A4U7A6)
[4] = biological target: hemagglutinin (HA) of A/Puerto Rico/8/34 (H1N1) on pseudotyped lentivirus (Influenza virus A/Puerto Rico/8/34 (H1N1)) (UniProt P03452)
[5] = biological target: hemagglutinin (HA) of A/Singapore/6/86 (H1N1) on pseudotyped lentivirus (Influenza virus A/Singapore/6/86 (H1N1)) (UniProt A3DRP0)
[6] = biological target: hemagglutinin (HA) of A/Hong Kong/117/77 (H1N1) on pseudotyped lentivirus (Influenza virus A/Hong Kong/117/77 (H1N1)) (UniProt P18875)
[7] = biological target: hemagglutinin (HA) of A/Beijing/262/95 (H1N1) on pseudotyped lentivirus (Influenza virus A/Beijing/262/95 (H1N1))
[8] = biological target: hemagglutinin (HA) of A/Iowa/43 (H1N1) on pseudotyped lentivirus (Influenza virus A/Iowa/43 (H1N1)) (UniProt A4GCK8)
[9] = biological target: hemagglutinin (HA) of A/New York/8/06 (H1N1) on pseudotyped lentivirus (Influenza virus A/New York/8/06 (H1N1))
[10] = biological target: hemagglutinin (HA) of A/New Jersey/76 (H1N1) on pseudotyped lentivirus (Influenza virus A/New Jersey/76 (H1N1))
[11] = biological target: hemagglutinin (HA) of A/Solomon Islands/3/06 (H1N1) on pseudotyped lentivirus (Influenza virus A/Solomon Islands/3/06 (H1N1))
[12] = biological target: hemagglutinin (HA) of A/New York/146/00 (H1N1) on pseudotyped lentivirus (Influenza virus A/New York/146/00 (H1N1))
[13] = biological target: hemagglutinin (HA) of A/South Carolina/1/18 (H1N1) on pseudotyped lentivirus (Influenza virus A/South Carolina/1/18 (H1N1)) (UniProt Q9WFX3)

With monoclonal antibody 441D6 the Neutralization IC50, lentivirus pseudotype neutralization assay [1] was 0.04 µg/mL, the Neutralization IC50, lentivirus pseudotype neutralization assay [2] was 0.02 µg/mL and the Neutralization IC50, lentivirus pseudotype neutralization assay [3] was 0.02 µg/mL. It also gave a Neutralization IC50, lentivirus pseudotype neutralization assay [4] of 0.08 µg/mL, a Neutralization IC50, lentivirus pseudotype neutralization assay [5] of 0.01 µg/mL and a Neutralization IC50, lentivirus pseudotype neutralization assay [6] of 0.04 µg/mL. It also gave a Neutralization IC50, lentivirus pseudotype neutralization assay [7] of 0.07 µg/mL, a Neutralization IC50, lentivirus pseudotype neutralization assay [8] of 11.1 µg/mL and a Neutralization IC50, lentivirus pseudotype neutralization assay [9] of 0.14 µg/mL. For the same substance, the Neutralization IC50, lentivirus pseudotype neutralization assay [10] was 0.03 µg/mL, the Neutralization IC50, lentivirus pseudotype neutralization assay [11] was 0.29 µg/mL and the Neutralization IC50, lentivirus pseudotype neutralization assay [12] was 0.01 µg/mL. The Neutralization IC50, lentivirus pseudotype neutralization assay [13] was 0.04 µg/mL.
Work on “monoclonal antibody CH65 (anti-receptor binding site of HA)” yielded a Neutralization IC50, lentivirus pseudotype neutralization assay [1] of 0.01 µg/mL, a Neutralization IC50, lentivirus pseudotype neutralization assay [2] of less than 0.005 µg/mL and a Neutralization IC50, lentivirus pseudotype neutralization assay [3] of 5.86 µg/mL. It also gave a Neutralization IC50, lentivirus pseudotype neutralization assay [4] of 0.44 µg/mL, a Neutralization IC50, lentivirus pseudotype neutralization assay [5] of less than 0.005 µg/mL and a Neutralization IC50, lentivirus pseudotype neutralization assay [6] of 0.97 µg/mL. It also gave a Neutralization IC50, lentivirus pseudotype neutralization assay [7] of 0.01 µg/mL, a Neutralization IC50, lentivirus pseudotype neutralization assay [8] greater than 50 µg/mL and a Neutralization IC50, lentivirus pseudotype neutralization assay [9] of 0.02 µg/mL. The Neutralization IC50, lentivirus pseudotype neutralization assay [10] was greater than 25 µg/mL, the Neutralization IC50, lentivirus pseudotype neutralization assay [11] was 1.3 µg/mL and the Neutralization IC50, lentivirus pseudotype neutralization assay [12] was 0.03 µg/mL. It also gave a Neutralization IC50, lentivirus pseudotype neutralization assay [13] of 0.57 µg/mL.
Substance “monoclonal antibody FI6v3 (anti-HA stem region)” has a Neutralization IC50, lentivirus pseudotype neutralization assay [1] of 0.09 µg/mL, a Neutralization IC50, lentivirus pseudotype neutralization assay [2] of 0.15 µg/mL and a Neutralization IC50, lentivirus pseudotype neutralization assay [3] of 22.2 µg/mL. The Neutralization IC50, lentivirus pseudotype neutralization assay [4] was 0.97 µg/mL, the Neutralization IC50, lentivirus pseudotype neutralization assay [5] was 0.01 µg/mL and the Neutralization IC50, lentivirus pseudotype neutralization assay [6] was 0.09 µg/mL. It also gave a Neutralization IC50, lentivirus pseudotype neutralization assay [7] of 1.01 µg/mL, a Neutralization IC50, lentivirus pseudotype neutralization assay [8] of 3.4 µg/mL and a Neutralization IC50, lentivirus pseudotype neutralization assay [9] greater than 25 µg/mL. The Neutralization IC50, lentivirus pseudotype neutralization assay [10] was 0.36 µg/mL, the Neutralization IC50, lentivirus pseudotype neutralization assay [11] was 0.94 µg/mL and the Neutralization IC50, lentivirus pseudotype neutralization assay [12] was 0.08 µg/mL. The Neutralization IC50, lentivirus pseudotype neutralization assay [13] was 4.4 µg/mL.
